Data published in article PMC5037179 (Frontiers in Molecular Biosciences, 2016).

Key:
[1] = target: IscU (Escherichia coli) (UniProt P0ACD4); conditions: cited from earlier work
[2] = target: T1, IscS (E. coli, UniProt P0A6B7 1-404); experiment: MST; IscS labelled with NT-647 at 52 nM, HscB serially diluted 1:1 from 600 uM (12 solutions); 20 mM Tris-HCl pH 8, 150 mM NaCl, 0.5 mM TCEP, 0.05% Tween-20; 25 C; 40-60% LED power, 17% IR-laser power; 1:1 stoichiometry assumed; conditions: both partners purified
T1 construct: IscS, pyridoxal phosphate dependent cysteine desulfurase of the isc operon, E. coli; subcloned by PCR from bacterial genomic DNA; For MST only, IscS was labelled with the amine-reactive dye NT-647 (about 0.67 dye molecules per IscS, RED-NHS kit); unlabelled in all other experiments; also called desulfurase IscS; wild-type IscS; source: E. coli BL21(DE3), purified (Ni-NTA, TEV cleavage, gel …)

[3] = target: T1, IscS; experiment: NMR titration; competition: 15N HSQC of 100 uM 15N-labelled HscB in complex with unlabelled IscS (1:1), titrated with CyaY or apo-Fdx up to 1:1:3; conditions: both partners purified

T1 sequence (P0A6B7 whole entry): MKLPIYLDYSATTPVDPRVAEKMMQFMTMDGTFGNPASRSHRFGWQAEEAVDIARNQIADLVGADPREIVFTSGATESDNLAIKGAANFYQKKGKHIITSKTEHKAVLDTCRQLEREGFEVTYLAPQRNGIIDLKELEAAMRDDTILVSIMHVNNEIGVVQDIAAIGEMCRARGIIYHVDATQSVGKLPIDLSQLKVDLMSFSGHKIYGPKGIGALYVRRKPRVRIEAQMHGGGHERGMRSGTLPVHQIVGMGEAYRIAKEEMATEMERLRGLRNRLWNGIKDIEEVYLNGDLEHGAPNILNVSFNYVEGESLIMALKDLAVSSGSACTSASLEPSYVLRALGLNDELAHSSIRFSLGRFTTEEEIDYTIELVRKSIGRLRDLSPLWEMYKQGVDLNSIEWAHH
IscU (Escherichia coli), sequence (P0ACD4 whole entry): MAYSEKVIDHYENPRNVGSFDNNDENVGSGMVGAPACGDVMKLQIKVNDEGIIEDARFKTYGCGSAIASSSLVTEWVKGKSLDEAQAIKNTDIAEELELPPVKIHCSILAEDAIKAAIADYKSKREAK

Question: For IscS (from UniProt P0A6B7), which Kd [1] is on record?
Answer: Its Kd is 10 µM.

B1: HscB (natural protein, E. coli)
chain: MDYFTLFGLPARYQLDTQALSLRFQDLQRQYHPDKFASGSQAEQLAAVQQSATINQAWQTLRHPLMRAEYLLSLHGFDLASEQHTVRDTAFLMEQLELREELDEIEQAKDEARLESFIKRVKKMFDTRHQLMVEQLDNETWDAAADTVRKLRFLDKLRSSAEQLEEKLLDF
notes: HscB, co-chaperone of the isc operon, E. coli; subcloned by PCR from bacterial genomic DNA; Uniformly 15N-labelled (HSQC) or 2H,15N-labelled (cross saturation) for NMR; unlabelled in MST, cross-linking and when added to 15N IscU; also called co-chaperone HscB; source: E. coli BL21(DE3), purified (Ni-NTA, TEV cleavage, gel filtration)
Question: With B1 as the molecule, how does the Kd [2] read?
Answer: The Kd was 10 to 30 µM.

B2: apo-Fdx (natural protein, E. coli, UniProt P0A9R4 1-111, looked up)
chain: MPKIVILPHQDLCPDGAVLEANSGETILDAALRNGIEIEHACEKSCACTTCHCIVREGFDSLPESSEQEDDMLDKAWGLEPESRLSCQARVTDEDLVVEIPRYTINHAREH
notes: Fdx, ferredoxin of the isc operon, E. coli; subcloned by PCR from bacterial genomic DNA; also called ferredoxin; source: E. coli BL21(DE3), purified (Ni-NTA, TEV cleavage, gel filtration)
Question: Does B2 bind [3]?
Answer: Result: binds
